Experimental data reported in article PMC9019090.

Target: FBXW7 (FBXW7α) (UniProt Q969H0)
Assay: Co-IP and reciprocal co-IP, immunoblot
Conditions: reference: Flag-ERRα wild type; sites S19,S22,S26

Substance: ERRα (from UniProt P11474) Flag-ERRα 3SA (S19A+S22A+S26A)
- binding against the reference: weaker
